Article doi:10.1101/2024.11.26.625568, “Structural and functional insights into activation and regulation of the dynein-dynactin-NuMA complex” (bioRxiv, 2024)

B1: NuMA C (domain or fragment, human, UniProt Q14980 1700-2115, looked up)
chain: FQVATDALKSREPQAKPQLDLSIDSLDLSCEEGTPLSITSKLPRTQPDGTSVPGEPASPISQRLPPKVESLESLYFTPIPARSQAPLESSLDSLGDVFLDSGRKTRSARRRTTQIINITMTKKLDVEEPDSANSSFYSTRSAPASQASLRATSSTQSLARLGSPDYGNSALLSLPGYRPTTRSSARRSQAGVSSGAPPGRNSFYMGTCQDEPEQLDDWNRIAELQQRNRVCPPHLKTCYPLESRPSLSLGTITDEEMKTGDPQETLRRASMQPIQIAEGTGITTRQQRKRVSLEPHQGPGTPESKKATSCFPRPMTPRDRHEGRKQSTTEAQKKAAPASTKQADRRQSMAFSILNTPKKLGNSLLRRGASKKALSKASPNTRSGTRRSPRIATTTASAATAAAIGATPRAKGKAKH
notes: NuMA, human, C-terminal region a.a; 1700-2115; also called NuMA C-terminus; NuMA C-mNG; source: SF9 insect cells (baculovirus), purified (IgG Sepharose, TEV elution, Superdex 200 SEC); not shown: His6, N-terminal, cleaved; ZZ, N-terminal, cleaved; MBP, N-terminal, cleaved; mNG, C-terminal, kept

What was measured:
[1] = target: microtubules (pig brain tubulin) (pig, UniProt P02550 1-451; Q767L7 1-444, Cy3 or Cy5 and biotin labels on a fraction of the tubulin | Cy3 or Cy5 and biotin labels on a fraction of the tubulin); test: TIRF imaging of fluorescent protein on surface-immobilised microtubules; Cy3/biotin taxol-stabilised MTs immobilised by streptavidin; serial dilutions of mNG-fused NuMA constructs in MBC buffer (30 mM HEPES pH 7.4, 5 mM MgSO4, 1 mM EGTA, 100 mM KAc, casein, pluronic, methylcellulose); apparent Kd from a fit to a binding isotherm; details: both partners purified
[2] = target: the molecule itself; test: mass photometry; single protein diluted to 5-20 nM in 50 mM HEPES pH 7.4, 150 mM NaCl, 1 mM EGTA, 10% glycerol; TwoMP mass photometer
NuMA C = target: B1; test: mass photometry; NuMA C and LGN mixed in equimolar (20 nM) concentrations; mass photometry buffer; details: both partners purified

| Binder | Kd [1] | stoichiometry N [2] | other results |
| --- | --- | --- | --- |
| NuMA MTBD2 (domain or fragment, human, UniProt Q14980 2002-2115, looked up, NuMA, human, a.a; 2002-2115; source: SF9 insect cells (baculovirus), purified (IgG Sepharose, TEV elution, Superdex 200 SEC); not shown: His6, N-terminal, cleaved; ZZ, N-terminal, cleaved; MBP, N-terminal, cleaved; mNG, C-terminal, kept) ESKKATSCFPRPMTPRDRHEGRKQSTTEAQKKAAPASTKQADRRQSMAFSILNTPKKLGNSLLRRGASKKALSKASPNTRSGTRRSPRIATTTASAATAAAIGATPRAKGKAKH | 28 nM | – | – |
| NuMA 1-505 (domain or fragment, human, UniProt Q14980 1-505, looked up, LD555 dye on the SNAP tag, NuMA (nuclear mitotic apparatus protein), human, a.a; The methods say 'C-terminal SNAP or mNG'; also called NuMA N-terminal construct; source: SF9 insect cells (baculovirus), purified (IgG Sepharose, TEV elution, Superose 6 SEC); not shown: His6, N-terminal, cleaved; ZZ, N-terminal, cleaved; SNAP, C-terminal, kept) MTLHATRGAALLSWVNSLHVADPVEAVLQLQDCSIFIKIIDRIHGTEEGQQILKQPVSERLDFVCSFLQKNRKHPSSPECLVSAQKVLEGSELELAKMTMLLLYHSTMSSKSPRDWEQFEYKIQAELAVILKFVLDHEDGLNLNEDLENFLQKAPVPSTCSSTFPEELSPPSHQAKREIRFLELQKVASSSSGNNFLSGSPASPMGDILQTPQFQMRRLKKQLADERSNRDELELELAENRKLLTEKDAQIAMMQQRIDRLALLNEKQAASPLEPKELEELRDKNESLTMRLHETLKQCQDLKTEKSQMDRKINQLSEENGDLSFKLREFASHLQQLQDALNELTEEHSKATQEWLEKQAQLEKELSAALQDKKCLEEKNEILQGKLSQLEEHLSQLQDNPPQEKGEVLGDVLQLETLKQEAATLAANNTQLQARVEMLETERGQQEAKLLAERGHFEEEKQQLSSLITDLQSSISNLSQAKEELEQASQAHGARLTAQVASLTS | – | 2 | – |
| NuMA 1-705 (domain or fragment, human, UniProt Q14980 1-705, looked up, LD555 dye on the SNAP tag, NuMA (nuclear mitotic apparatus protein), human, a.a; Construct used for the cryo-EM structure of the DDN complex; also called NuMA N-terminal construct; source: SF9 insect cells (baculovirus), purified (IgG Sepharose, TEV elution, Superose 6 SEC); not shown: His6, N-terminal, cleaved; ZZ, N-terminal, cleaved; SNAP, C-terminal, kept) MTLHATRGAALLSWVNSLHVADPVEAVLQLQDCSIFIKIIDRIHGTEEGQQILKQPVSERLDFVCSFLQKNRKHPSSPECLVSAQKVLEGSELELAKMTMLLLYHSTMSSKSPRDWEQFEYKIQAELAVILKFVLDHEDGLNLNEDLENFLQKAPVPSTCSSTFPEELSPPSHQAKREIRFLELQKVASSSSGNNFLSGSPASPMGDILQTPQFQMRRLKKQLADERSNRDELELELAENRKLLTEKDAQIAMMQQRIDRLALLNEKQAASPLEPKELEELRDKNESLTMRLHETLKQCQDLKTEKSQMDRKINQLSEENGDLSFKLREFASHLQQLQDALNELTEEHSKATQEWLEKQAQLEKELSAALQDKKCLEEKNEILQGKLSQLEEHLSQLQDNPPQEKGEVLGDVLQLETLKQEAATLAANNTQLQARVEMLETERGQQEAKLLAERGHFEEEKQQLSSLITDLQSSISNLSQAKEELEQASQAHGARLTAQVASLTSELTTLNATIQQQDQELAGLKQQAKEKQAQLAQTLQQQEQASQGLRHQVEQLSSSLKQKEQQLKEVAEKQEATRQDHAQQLATAAEEREASLRERDAALKQLEALEKEKAAKLEILQQQLQVANEARDSAQTSVTQAQREKAELSRKVEELQACVETARQEQHEAQAQVAELELQLRSEQQKATEKERVAQEKDQLQEQLQ | – | 2 | – |
| NuMA 1-1699 (domain or fragment, human, UniProt Q14980 1-1699, looked up, LD555 dye on the SNAP tag, NuMA (nuclear mitotic apparatus protein), human, a.a; 1-1699; also called NuMA N-terminal construct; source: SF9 insect cells (baculovirus), purified (IgG Sepharose, TEV elution, Superose 6 SEC); not shown: His6, N-terminal, cleaved; ZZ, N-terminal, cleaved; SNAP, C-terminal, kept) MTLHATRGAALLSWVNSLHVADPVEAVLQLQDCSIFIKIIDRIHGTEEGQQILKQPVSERLDFVCSFLQKNRKHPSSPECLVSAQKVLEGSELELAKMTMLLLYHSTMSSKSPRDWEQFEYKIQAELAVILKFVLDHEDGLNLNEDLENFLQKAPVPSTCSSTFPEELSPPSHQAKREIRFLELQKVASSSSGNNFLSGSPASPMGDILQTPQFQMRRLKKQLADERSNRDELELELAENRKLLTEKDAQIAMMQQRIDRLALLNEKQAASPLEPKELEELRDKNESLTMRLHETLKQCQDLKTEKSQMDRKINQLSEENGDLSFKLREFASHLQQLQDALNELTEEHSKATQEWLEKQAQLEKELSAALQDKKCLEEKNEILQGKLSQLEEHLSQLQDNPPQEKGEVLGDVLQLETLKQEAATLAANNTQLQARVEMLETERGQQEAKLLAERGHFEEEKQQLSSLITDLQSSISNLSQAKEELEQASQAHGARLTAQVASLTSELTTLNATIQQQDQELAGLKQQAKEKQAQLAQTLQQQEQASQGLRHQVEQLSSSLKQKEQQLKEVAEKQEATRQDHAQQLATAAEEREASLRERDAALKQLEALEKEKAAKLEILQQQLQVANEARDSAQTSVTQAQREKAELSRKVEELQACVETARQEQHEAQAQVAELELQLRSEQQKATEKERVAQEKDQLQEQLQALKESLKVTKGSLEEEKRRAADALEEQQRCISELKAETRSLVEQHKRERKELEEERAGRKGLEARLQQLGEAHQAETEVLRRELAEAMAAQHTAESECEQLVKEVAAWRERYEDSQQEEAQYGAMFQEQLMTLKEECEKARQELQEAKEKVAGIESHSELQISRQQNELAELHANLARALQQVQEKEVRAQKLADDLSTLQEKMAATSKEVARLETLVRKAGEQQETASRELVKEPARAGDRQPEWLEEQQGRQFCSTQAALQAMEREAEQMGNELERLRAALMESQGQQQEERGQQEREVARLTQERGRAQADLALEKAARAELEMRLQNALNEQRVEFATLQEALAHALTEKEGKDQELAKLRGLEAAQIKELEELRQTVKQLKEQLAKKEKEHASGSGAQSEAAGRTEPTGPKLEALRAEVSKLEQQCQKQQEQADSLERSLEAERASRAERDSALETLQGQLEEKAQELGHSQSALASAQRELAAFRTKVQDHSKAEDEWKAQVARGRQEAERKNSLISSLEEEVSILNRQVLEKEGESKELKRLVMAESEKSQKLEERLRLLQAETASNSARAAERSSALREEVQSLREEAEKQRVASENLRQELTSQAERAEELGQELKAWQEKFFQKEQALSTLQLEHTSTQALVSELLPAKHLCQQLQAEQAAAEKRHREELEQSKQAAGGLRAELLRAQRELGELIPLRQKVAEQERTAQQLRAEKASYAEQLSMLKKAHGLLAEENRGLGERANLGRQFLEVELDQAREKYVQELAAVRADAETRLAEVQREAQSTARELEVMTAKYEGAKVKVLEERQRFQEERQKLTAQVEQLEVFQREQTKQVEELSKKLADSDQASKVQQQKLKAVQAQGGESQQEAQRLQAQLNELQAQLSQKEQAAEHYKLQMEKAKTHYDAKKQQNQELQEQLRSLEQLQKENKELRAEAERLGHELQQAGLKTKEAEQTCRHLTAQVRSLEAQVAHADQQLRDLGK | – | 2 | – |
| B1 | 390 nM | – | – |
| TPR domain of LGN (a.a. 1-409) (domain or fragment, human, UniProt P81274 1-409, looked up, LD655 dye on the SNAP tag (unlabeled LGN in some assays), LGN, human, N-terminal TPR domain a.a; 1-409; cloned from pTK47_mCherry-LGN-Hardened; The methods say 'C-terminal SNAP or mNG'; the LD655 labelling implies SNAP; also called LGN TPR; source: SF9 insect cells (baculovirus), purified (IgG Sepharose, TEV elution, Resource-Q ion exchange); not shown: His6, N-terminal, cleaved; ZZ, N-terminal, cleaved; SNAP, C-terminal, kept) MEENLISMREDHSFHVRYRMEASCLELALEGERLCKSGDCRAGVSFFEAAVQVGTEDLKTLSAIYSQLGNAYFYLHDYAKALEYHHHDLTLARTIGDQLGEAKASGNLGNTLKVLGNFDEAIVCCQRHLDISRELNDKVGEARALYNLGNVYHAKGKSFGCPGPQDVGEFPEEVRDALQAAVDFYEENLSLVTALGDRAAQGRAFGNLGNTHYLLGNFRDAVIAHEQRLLIAKEFGDKAAERRAYSNLGNAYIFLGEFETASEYYKKTLLLARQLKDRAVEAQSCYSLGNTYTLLQDYEKAIDYHLKHLAIAQELNDRIGEGRACWSLGNAYTALGNHDQAMHFAEKHLEISREVGDKSGELTARLNLSDLQMVLGLSYSTNNSIMSENTEIDSSLNGVRPKLGRRHSM | – | – | stoichiometry N (NuMA C): 3 LGN per 3 NuMA C |
